According to patent US20250215080A1 (published 2025):
Values belong to the binder of their own block, whether it stands above or below them.

Legend:
hTREM2 ECD (19-174) [1] = target: T1, hTREM2 ECD (19-174) (human, UniProt Q9NZC2 19-174); test: SET
T1 construct: Antigen in solution of the SET experiments; also called human TREM2 (SET antigen)
T1 sequence: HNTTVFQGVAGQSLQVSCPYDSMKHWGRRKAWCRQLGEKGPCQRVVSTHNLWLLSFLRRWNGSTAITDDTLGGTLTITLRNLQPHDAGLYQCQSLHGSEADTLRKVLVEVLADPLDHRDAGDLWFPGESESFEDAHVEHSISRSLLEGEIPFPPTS

[2] = target: T2, cynomolgus TREM2 (construct not stated) (cynomolgus, UniProt A0A2K5UY34 49-204); test: SET
T2 construct: also called cyno TREM2
T2 sequence: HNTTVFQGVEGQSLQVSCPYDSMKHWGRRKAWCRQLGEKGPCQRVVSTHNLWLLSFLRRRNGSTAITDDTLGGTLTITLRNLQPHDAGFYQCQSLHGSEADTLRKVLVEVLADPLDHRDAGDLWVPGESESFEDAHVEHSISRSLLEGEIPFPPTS

hTREM2 ECD (19-174) [3] = target: T1, hTREM2 ECD (19-174); test: SET screening
Protocol: Serial dilutions of unlabeled antigen were prepared, starting with a concentration at least 10 times higher than the expected KD. Wells without antigen were used to determine Bmax values; wells containing only assay buffer were used to determine background.
The data was evaluated with XLfit (IDBS) software applying customized fitting models. […] A constant amount of diluted BEL extract (containing borate buffer, EDTA and lysozyme) was equilibrated over night with different concentrations of antigen.

[4] = target: T3, human TREM2 (hTREM2), expressed on cells (human, UniProt Q9NZC2 19-230); test: FACS, hM2A, donor 1
T3 construct: Signal peptide 1-18 as stated left out; On CHO cells co-expressed with hDAP12; on hM2A macrophages endogenous; also called WT-TREM2; CHO-hDAP12-hTREM2
T3 sequence: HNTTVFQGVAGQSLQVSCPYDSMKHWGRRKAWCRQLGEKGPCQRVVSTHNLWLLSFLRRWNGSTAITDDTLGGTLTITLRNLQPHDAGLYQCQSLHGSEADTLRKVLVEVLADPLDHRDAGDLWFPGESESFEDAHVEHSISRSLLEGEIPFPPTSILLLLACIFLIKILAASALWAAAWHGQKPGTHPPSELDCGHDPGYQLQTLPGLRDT
Protocol: (§1) To determine cellular EC₅₀ of antibodies on hM2A, CHO-hTREM2 or CHO-cynoTREM2, cells were treated o/n with 5 μM DPC333 (ADAM10 and 17 inhibitor; Qian, M et al. Drug Metab Dispos, 2007. 35:p. 1916-1925). Macrophages were detached with accutase (Biolegend, 423201) followed by resuspension in FACS buffer (PBS, 2% FBS, 0.5 mM EDTA, pH 8.0) supplemented with 50 μg/ml Fc block (BD, 564220) and incubated for at least 20 min on ice. Next cells were stained for 1 h at 4° C. in the same buffer with a broad concentration range of the different anti-TREM2 antibodies followed by a washing step with PBS (250 g, 4° C., 3 min). […] After a second washing step with PBS (250 g, 4° C., 3 min), cells were fixed with fixation buffer (Biolegend, 420801) for 15 min at RT, washed again and fluorescence was assessed using a BD FACS Canto II (BD, V96300323) or a FacsCalibur flow cytometer. Median fluorescence intensities corresponding to the degree of TREM2 antibody bound to cells were evaluated using FlowJo software (Millipore INC).
(§2) Individual values for each donor are given.

[5] = target: T3, human TREM2 (hTREM2), expressed on cells; test: FACS, hM2A, donor 2
Protocol: as §1, §2

[6] = target: T3, human TREM2 (hTREM2), expressed on cells; test: FACS, hM2A, donor 3
Protocol: as §1, §2

[7] = target: T3, human TREM2 (hTREM2), expressed on cells; test: FACS, hM2A, donor 4
Protocol: as §1, §2

[8] = target: proteins of the protein panel profiling (3P), 25 in total; test: protein panel profiling (3P), ECL
[9] = target: T3, human TREM2 (hTREM2), expressed on cells; test: cell-based or functional assay
[10] = target: T3, human TREM2 (hTREM2), expressed on cells; test: cell-based or functional assay; remark: listed apart in the source
[11] = target: T3, human TREM2 (hTREM2), expressed on cells; test: FACS, hM2A macrophages
Protocol: as §1, §2

[12] = target: T3, human TREM2 (hTREM2), expressed on cells; test: FACS, CHO-hTREM2 cells
Protocol: as §1

[13] = target: T3, human TREM2 (hTREM2), expressed on cells; test: cell-based or functional assay; remark: listed apart in the source
[14] = target: T4, cynomolgus TREM2 expressed on CHO cells (cynomolgus, UniProt A0A2K5UY34 49-260); test: FACS, CHO-cyTREM2 cells
T4 construct: whole, on cells; also called CHO-cyTREM2; CHO-cynoTREM2
T4 sequence: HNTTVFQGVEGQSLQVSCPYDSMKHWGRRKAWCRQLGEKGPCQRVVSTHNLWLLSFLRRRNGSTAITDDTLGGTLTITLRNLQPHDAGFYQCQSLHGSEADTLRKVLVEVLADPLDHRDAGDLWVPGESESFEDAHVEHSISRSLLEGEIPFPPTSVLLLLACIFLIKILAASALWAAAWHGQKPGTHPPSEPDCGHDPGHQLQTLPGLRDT
Protocol: as §1

hTREM2 ECD (19-174)-hFc [15] = target: T5, hTREM2 ECD (19-174)-hFc (human, UniProt Q9NZC2 19-174, biotinylated in the -bio form); test: SPR, label free kinetics
T5 construct: Plain and biotinylated forms are kept as one molecule; also called hTREM2 ECD (19-174)-hFc-bio; hTREM2 Fc
T5 sequence: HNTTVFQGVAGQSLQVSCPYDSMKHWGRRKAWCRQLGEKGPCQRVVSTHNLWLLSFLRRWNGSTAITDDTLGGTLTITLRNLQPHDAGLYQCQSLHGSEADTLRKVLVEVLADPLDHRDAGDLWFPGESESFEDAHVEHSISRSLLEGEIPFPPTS
Protocol: (§3) For a precise assessment of the binding affinities of the antibodies affinity-determination by measuring kinetic rate constants was performed by SPR. In addition a comparison to cynomolgus TREM2 was performed (Table 21).

[16] = target: T6, cyTREM2 ECD (19-174)-APP-Avi (cynomolgus, UniProt A0A2K5UY34 49-204); test: SPR, label free kinetics
T6 construct: range 19-174
T6 sequence: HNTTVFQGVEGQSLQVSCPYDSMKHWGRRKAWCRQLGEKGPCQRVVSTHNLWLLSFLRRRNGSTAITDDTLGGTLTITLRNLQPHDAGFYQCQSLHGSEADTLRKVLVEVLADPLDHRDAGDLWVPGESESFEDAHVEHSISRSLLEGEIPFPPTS
Protocol: as §3

[17] = target: T7, hTREM2 IgSF-hTREM1 stalk-hFc (human, UniProt Q9NP99 135-205, limits assumed, biotinylated in the -bio form); test: S/BG on recombinant protein
T7 construct: domain: stalk region; also called hTREM2 IgSF-T1 stalk-hFc-bio; hTREM2 IgSF-hTREM1 stalk-hFc-bio
T7 sequence: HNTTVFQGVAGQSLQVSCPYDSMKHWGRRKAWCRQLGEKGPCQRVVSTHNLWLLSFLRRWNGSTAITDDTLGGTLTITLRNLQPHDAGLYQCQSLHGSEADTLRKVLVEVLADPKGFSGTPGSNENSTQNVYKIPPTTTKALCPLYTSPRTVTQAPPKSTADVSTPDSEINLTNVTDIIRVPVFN

hTREM2 ECD (19-174)-hFc [18] = target: T5, hTREM2 ECD (19-174)-hFc; test: S/BG on recombinant protein
cyTREM2 ECD (19-174)-hFc = target: T8, cyTREM2 ECD (19-174)-hFc (cynomolgus, UniProt A0A2K5UY34 49-204); test: S/BG on recombinant protein
T8 construct: range 19-174; also called cyTREM2-ECD (19-174)-hFc-bio
T8 sequence: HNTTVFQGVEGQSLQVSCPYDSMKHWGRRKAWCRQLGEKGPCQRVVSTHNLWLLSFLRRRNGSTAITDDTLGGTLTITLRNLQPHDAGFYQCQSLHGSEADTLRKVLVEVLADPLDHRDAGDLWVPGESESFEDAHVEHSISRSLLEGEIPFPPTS

[19] = target: T3, human TREM2 (hTREM2), expressed on cells; test: FACS, hM2A, median of 4 donors
Protocol: as §1, §2

[20] = target: T3, human TREM2 (hTREM2), expressed on cells; test: FACS, hM2A macrophages; remark: listed apart in the source
[21] = target: T3, human TREM2 (hTREM2), expressed on cells; test: cell-based or functional assay; remark: listed apart in the source
[22] = target: T3, human TREM2 (hTREM2), expressed on cells; test: FACS, CHO-hDAP12-hTREM2 cells

Kd (hTREM2 ECD (19-174) [1]): 0.003 nM
Kd [2]: 0.004 nM
Kd (hTREM2 ECD (19-174) [3]): < 0.6 nM
EC50 [4]: 0.73 nM
EC50 [5]: 0.54 nM
EC50 [6]: 0.54 nM
EC50 [7]: 0.64 nM
Cumulative binding ratio [8]: < 150
Internalization compared to parental after 6 h [9]: 0.7 fold of parental
Internalization; fold over background after 6 h [9]: 33.3 fold
TREM2 activation (fold in RGA) [10]: 1.3 fold
EC50 [11]: < 2 nM
EC50 [12]: 0.16 nM
Fold TREM2 cell surface increase compared to isotype (hM2A, 100 nM o/n) [13]: 5.1 fold
EC50 [14]: 0.65 nM
Kd (hTREM2 ECD (19-174)-hFc [15]): 0.003 nM
Kd [16]: 0.004 nM
S/BG [17]: > 20
S/BG (hTREM2 ECD (19-174)-hFc [18]): > 5
S/BG (cyTREM2 ECD (19-174)-hFc): > 5
EC50 [19]: 0.59 nM
B1: MOR044746 (antibody, V domains shown)
VH: QVQLQQSGPGLVKPSQTLSLTCAISGDSVSSSSAAWNWIRQSPSRGLEWLGHIGYRSKWYNEYAVSVKSRITINPDTSKNQFSLQLNSVTPEDTAVYYCARGMYGSVPYKEGYYFDIWGQGTLVTVSS
VL: DIQMTQSPSSLSASVGDRVTITCRASQGISSDLNWYQQKPGKAPKLLIYAASNLQSGVPSRFSGSGSGTDFTLTISSLQPEDFATYYCQQYTDESMTFGQGTKVEIK
notes: light chain 63); Human IgG vector of the campaign: IgG1f LALA; Matured from MOR042493; VH6 k1; also called MOR44746

EC50 [20]: 0.7 nM
RGA in THP-B5 cells (fold increase over BG) [21]: 2.1 fold
EC50 [22]: 0.5 nM
B2: MOR041877 (full IgG) (antibody, V domains shown)
VH: QVQLKESGPALVKPTQTLTLTCTFSGFSLSTSGVGVSWIRQPPGKALEWLALIFSDHDKIYSTSLKTRLTISKDTSKNQVVLTMTNMDPVDTATYYCARTLIDRSVYFDYWGQGTLVTVSS
VL: DIVLTQPPSVSGAPGQRVTISCSGSSSNIGHHYVSWYQQLPGTAPKLLIYDNTNRPSGVPDRFSGSKSGTSASLAITGLQAEDEADYYCATWDGLMNSIVFGGGTKLTVLG
